Paper PMC4187570, “Clathrin complexes with the inhibitor kappa B kinase signalosome: imaging the interactome” (Physiological Reports, 2014)

T1: IKKα (human (endogenous in A549), UniProt O15111 1-745)
T1 construct: also called CHUK; source: endogenous, A549 cells (M-PER lysate for the pull-down; fixed, permeabilised cells for FRET)
T1 sequence (looked up): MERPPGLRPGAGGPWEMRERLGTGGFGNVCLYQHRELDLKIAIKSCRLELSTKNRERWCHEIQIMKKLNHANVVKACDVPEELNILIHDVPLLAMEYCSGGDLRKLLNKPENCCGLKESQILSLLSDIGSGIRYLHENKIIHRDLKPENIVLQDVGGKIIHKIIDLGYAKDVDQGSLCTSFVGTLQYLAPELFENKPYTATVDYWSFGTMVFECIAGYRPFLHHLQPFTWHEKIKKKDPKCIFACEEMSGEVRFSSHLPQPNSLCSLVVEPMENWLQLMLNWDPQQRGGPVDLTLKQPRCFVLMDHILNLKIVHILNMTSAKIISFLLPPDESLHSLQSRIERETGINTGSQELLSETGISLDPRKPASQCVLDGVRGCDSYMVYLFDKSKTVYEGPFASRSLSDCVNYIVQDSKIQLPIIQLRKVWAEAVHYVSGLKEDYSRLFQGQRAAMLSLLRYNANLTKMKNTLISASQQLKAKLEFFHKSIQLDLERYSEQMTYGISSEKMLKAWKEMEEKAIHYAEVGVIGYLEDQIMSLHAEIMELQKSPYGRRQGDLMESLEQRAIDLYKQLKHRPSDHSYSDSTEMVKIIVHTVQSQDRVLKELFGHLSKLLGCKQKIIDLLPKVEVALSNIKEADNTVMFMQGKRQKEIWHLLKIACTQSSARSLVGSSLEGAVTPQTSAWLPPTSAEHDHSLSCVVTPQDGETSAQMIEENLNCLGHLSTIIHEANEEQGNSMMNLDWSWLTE

B1: IKKβ (natural protein, human (endogenous in A549), UniProt O14920 1-756, looked up)
chain: MSWSPSLTTQTCGAWEMKERLGTGGFGNVIRWHNQETGEQIAIKQCRQELSPRNRERWCLEIQIMRRLTHPNVVAARDVPEGMQNLAPNDLPLLAMEYCQGGDLRKYLNQFENCCGLREGAILTLLSDIASALRYLHENRIIHRDLKPENIVLQQGEQRLIHKIIDLGYAKELDQGSLCTSFVGTLQYLAPELLEQQKYTVTVDYWSFGTLAFECITGFRPFLPNWQPVQWHSKVRQKSEVDIVVSEDLNGTVKFSSSLPYPNNLNSVLAERLEKWLQLMLMWHPRQRGTDPTYGPNGCFKALDDILNLKLVHILNMVTGTIHTYPVTEDESLQSLKARIQQDTGIPEEDQELLQEAGLALIPDKPATQCISDGKLNEGHTLDMDLVFLFDNSKITYETQISPRPQPESVSCILQEPKRNLAFFQLRKVWGQVWHSIQTLKEDCNRLQQGQRAAMMNLLRNNSCLSKMKNSMASMSQQLKAKLDFFKTSIQIDLEKYSEQTEFGITSDKLLLAWREMEQAVELCGRENEVKLLVERMMALQTDIVDLQRSPMGRKQGGTLDDLEEQARELYRRLREKPRDQRTEGDSQEMVRLLLQAIQSFEKKVRVIYTQLSKTVVCKQKALELLPKVEEVVSLMNEDEKTVVRLQEKRQKELWNLLKIACSKVRGPVSGSPDSMNASRLSQPGQLMSQPSTASNSLPEPAKKSEELVAEAHNLCTLLENAIQDTVREQDQSFTALDWSWLQTEEEEHSCLEQAS
notes: also called IKBKB; source: endogenous, A549 cells (M-PER lysate for the pull-down; fixed, permeabilised cells for FRET)
B2: clathrin heavy chain 1 (natural protein, human (endogenous in A549), UniProt Q00610 1-1675, looked up)
chain: MAQILPIRFQEHLQLQNLGINPANIGFSTLTMESDKFICIREKVGEQAQVVIIDMNDPSNPIRRPISADSAIMNPASKVIALKAGKTLQIFNIEMKSKMKAHTMTDDVTFWKWISLNTVALVTDNAVYHWSMEGESQPVKMFDRHSSLAGCQIINYRTDAKQKWLLLTGISAQQNRVVGAMQLYSVDRKVSQPIEGHAASFAQFKMEGNAEESTLFCFAVRGQAGGKLHIIEVGTPPTGNQPFPKKAVDVFFPPEAQNDFPVAMQISEKHDVVFLITKYGYIHLYDLETGTCIYMNRISGETIFVTAPHEATAGIIGVNRKGQVLSVCVEEENIIPYITNVLQNPDLALRMAVRNNLAGAEELFARKFNALFAQGNYSEAAKVAANAPKGILRTPDTIRRFQSVPAQPGQTSPLLQYFGILLDQGQLNKYESLELCRPVLQQGRKQLLEKWLKEDKLECSEELGDLVKSVDPTLALSVYLRANVPNKVIQCFAETGQVQKIVLYAKKVGYTPDWIFLLRNVMRISPDQGQQFAQMLVQDEEPLADITQIVDVFMEYNLIQQCTAFLLDALKNNRPSEGPLQTRLLEMNLMHAPQVADAILGNQMFTHYDRAHIAQLCEKAGLLQRALEHFTDLYDIKRAVVHTHLLNPEWLVNYFGSLSVEDSLECLRAMLSANIRQNLQICVQVASKYHEQLSTQSLIELFESFKSFEGLFYFLGSIVNFSQDPDVHFKYIQAACKTGQIKEVERICRESNCYDPERVKNFLKEAKLTDQLPLIIVCDRFDFVHDLVLYLYRNNLQKYIEIYVQKVNPSRLPVVIGGLLDVDCSEDVIKNLILVVRGQFSTDELVAEVEKRNRLKLLLPWLEARIHEGCEEPATHNALAKIYIDSNNNPERFLRENPYYDSRVVGKYCEKRDPHLACVAYERGQCDLELINVCNENSLFKSLSRYLVRRKDPELWGSVLLESNPYRRPLIDQVVQTALSETQDPEEVSVTVKAFMTADLPNELIELLEKIVLDNSVFSEHRNLQNLLILTAIKADRTRVMEYINRLDNYDAPDIANIAISNELFEEAFAIFRKFDVNTSAVQVLIEHIGNLDRAYEFAERCNEPAVWSQLAKAQLQKGMVKEAIDSYIKADDPSSYMEVVQAANTSGNWEELVKYLQMARKKARESYVETELIFALAKTNRLAELEEFINGPNNAHIQQVGDRCYDEKMYDAAKLLYNNVSNFGRLASTLVHLGEYQAAVDGARKANSTRTWKEVCFACVDGKEFRLAQMCGLHIVVHADELEELINYYQDRGYFEELITMLEAALGLERAHMGMFTELAILYSKFKPQKMREHLELFWSRVNIPKVLRAAEQAHLWAELVFLYDKYEEYDNAIITMMNHPTDAWKEGQFKDIITKVANVELYYRAIQFYLEFKPLLLNDLLMVLSPRLDHTRAVNYFSKVKQLPLVKPYLRSVQNHNNKSVNESLNNLFITEEDYQALRTSIDAYDNFDNISLAQRLEKHELIEFRRIAAYLFKGNNRWKQSVELCKKDSLYKDAMQYASESKDTELAEELLQWFLQEEKRECFGACLFTCYDLLRPDVVLETAWRHNIMDFAMPYFIQVMKEYLTKVDKLDASESLRKEEEQATETQPIVYGQPQLMLTAGPSVAVPPQAPFGYGYTAPPYGQPQPGFGYSM
notes: clathrin heavy chain 1 (CLTC), human, SwissProt entry name CLH1_HUMAN; also called CHC; CLH1; source: endogenous, A549 cells (M-PER lysate for the pull-down; fixed, permeabilised cells for FRET)

Legend:
Assay in all cases: FRET or BRET; corrected FRET between fluorophore-labelled secondary antibodies (Alexa 488:Cy3, Cy3:Cy5) on primary antibodies, indirect immunofluorescence of acetone/methanol-fixed resting A549 cells, deconvolved Z-stacks; epitopes within about 30 nm; FRETN = cFRET normalised to the acceptor's emission, mean of four sets of experiments
[1] = biological target: IKKα (human (endogenous in A549)) (UniProt O15111)
[2] = biological target: IKKβ (human (endogenous in A549)) (UniProt O14920)
IKKα = biological target: T1, IKKα; details: partners not purified
IKKβ = biological target: B1; details: partners not purified

Molecule	normalized FRET (FRETN) [1]	normalized FRET (FRETN) [2]	normalized FRET (FRETN) (IKKα)	normalized FRET (FRETN) (IKKβ)
heat-shock protein-90 (from UniProt P07900 1-732) (natural protein)	0.3	0.632	–	–
B1	–	–	0.362	–
B2	–	–	0.7	0.522
